Target: T1, HMCES SRAP domain (SRAPd) (Homo sapiens, UniProt Q96FZ2 1-270)
T1 sequence: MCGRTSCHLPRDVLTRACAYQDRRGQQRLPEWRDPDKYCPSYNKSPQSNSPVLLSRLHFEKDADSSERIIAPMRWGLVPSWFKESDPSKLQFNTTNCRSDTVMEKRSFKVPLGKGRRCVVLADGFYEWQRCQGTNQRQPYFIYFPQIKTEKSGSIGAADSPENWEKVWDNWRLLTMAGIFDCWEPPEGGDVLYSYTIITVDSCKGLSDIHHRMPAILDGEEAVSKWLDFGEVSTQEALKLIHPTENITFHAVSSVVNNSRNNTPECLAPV
Experiment: X-ray crystallography

B1: P5nt palindromic DNA (dsDNA)
DNA 1: CAACGTTGTTTTT
DNA 2: CAACGTTGTTTTT
B1: binds.

— publication PMC6980713
